Data reported in patent US20230031980A1 (SHANGHAI NINTH PEOPLE S HOSPITAL SHANGHAI JIAO TONG …, published 2023).
Positions count from the first letter of the chain named. Numbers in names are those of the source.

B1: His-SAGE1-Flag (WT SAGE1) (other, not shown: small tags and cut ends)
chain: MQASPLQTSQPTPPEELHAAAYVFTNDGQQMRSDEVNLVATGHQSKKKHSRKSKRHSSSKRRKSMSSWLDKQEDAAVTHSICEERINNGQPVADNVLSTAPPWPDATIAHNIREERMENGQSRTDKVLSTAPPQLVHMAAAGIPSMSTRDLHSTVTHNIREERMENGQPQPDNVLSTGPTGLINMAATPIPAMSARDLYATVTHNVCEQKMENVQPAPDNVLLTLRPRRINMTDTGISPMSTRDPYATITYNVPEEKMEKGQPQPDNILSTASTGLINVAGAGTPAISTNGLYSTVPHNVCEEKMENDQPQPNNVLSTVQPVIIYLTATGIPGMNTRDQYATITHNVCEERVVNNQPLPSNALSTVLPGLAYLATADMPAMSTRDQHATIIHNLREEKKDNSQPTPDNVLSAVTPELINLAGAGIPPMSTRDQYATVNHHVHEARMENGQRKQDNVLSNVLSGLINMAGASIPAMSSRDLYATITHSVREEKMESGKPQTDKVISNDAPQLGHMAAGGIPSMSTKDLYATVTQNVHEERMENNQPQPSYDLSTVLPGLTYLTVAGIPAMSTRDQYATVTHNVHEEKIKNGQAASDNVFSTVPPAFINMAATGVSSMSTRDQYAAVTHNIREEKINNSQPAPGNILSTAPPWLRHMAAAGISSTITRDLYVTATHSVHEEKMTNGQQAPDNSLSTVPPGCINLSGAGISCRSTRDLYATVIHDIQEEEMENDQTPPDGFLSNSDSPELINMTGHCMPPNALDSFSHDFTSLSKDELLYKPDSNEFAVGTKNYSVSAGDPPVTVMSLVETVPNTPQISPAMAKKINDDIKYQLMKEVRRFGQNYERIFILLEEVQGSMKVKRQFVEFTIKEAARFKKVVLIQQLEKALKEIDSHCHLRKVKHMRKR
notes: also called wild type SAGE1
B2: SAGE1mut (R872A, F873A, K874A, M832A, F838A and Q840A) (other, not shown: small tags and cut ends)
chain: B1 chain with M832A, F838A, Q840A, R872A, F873A, K874A
notes: Derived from the WT SAGE1 plasmid by site-directed mutagenesis; also called mutant SAGE1; Mutant SAGE1
B3: INTS6I3BD (INTS3-binding domain of INTS6, residues 803-887) (other)
chain: RSHEEVNTELKAQIMKEIRKPGRKYERIFTLLKHVQGSLQTRLIFLQNVIKEASRFKKRMLIEQLENFLDEIHRRANQINHINSN
notes: It was cloned in pGEX-6P-1 and purified as the INTS3CTD-INTS6I3BD complex; also called INTS6803-887; small domain at the C-terminus of INTS6
B4: SAGE1ΔI3BD (deletion mutant of SAGE1 lacking the I3BD domain) (other)
chain: MQASPLQTSQPTPPEELHAAAYVFTNDGQQMRSDEVNLVATGHQSKKKHSRKSKRHSSSKRRKSMSSWLDKQEDAAVTHSICEERINNGQPVADNVLSTAPPWPDATIAHNIREERMENGQSRTDKVLSTAPPQLVHMAAAGIPSMSTRDLHSTVTHNIREERMENGQPQPDNVLSTGPTGLINMAATPIPAMSARDLYATVTHNVCEQKMENVQPAPDNVLLTLRPRRINMTDTGISPMSTRDPYATITYNVPEEKMEKGQPQPDNILSTASTGLINVAGAGTPAISTNGLYSTVPHNVCEEKMENDQPQPNNVLSTVQPVIIYLTATGIPGMNTRDQYATITHNVCEERVVNNQPLPSNALSTVLPGLAYLATADMPAMSTRDQHATIIHNLREEKKDNSQPTPDNVLSAVTPELINLAGAGIPPMSTRDQYATVNHHVHEARMENGQRKQDNVLSNVLSGLINMAGASIPAMSSRDLYATITHSVREEKMESGKPQTDKVISNDAPQLGHMAAGGIPSMSTKDLYATVTQNVHEERMENNQPQPSYDLSTVLPGLTYLTVAGIPAMSTRDQYATVTHNVHEEKIKNGQAASDNVFSTVPPAFINMAATGVSSMSTRDQYAAVTHNIREEKINNSQPAPGNILSTAPPWLRHMAAAGISSTITRDLYVTATHSVHEEKMTNGQQAPDNSLSTVPPGCINLSGAGISCRSTRDLYATVIHDIQEEEMENDQTPPDGFLSNSDSPELINMTGHCMPPNALDSFSHDFTSLSKDELLYKPDSNEFAVGTKNYSVSAGDPPVTVMSLVETVPNTPQISP
notes: also called SAGE1DI3BD
B5: SAGE1I3BD (INTS3-binding domain of SAGE1, residues 818-904) (other)
chain: AMAKKINDDIKYQLMKEVRRFGQNYERIFILLEEVQGSMKVKRQFVEFTIKEAARFKKVVLIQQLEKALKEIDSHCHLRKVKHMRKR
notes: Expressed in E. coli with a His-SUMO or GST tag; also called SAGE1818-904; small C-terminal region of SAGE1
B6: INTS3CTD (C-terminal domain of INTS3, residues 572-978) (other)
chain: DQLDESLRDKVLQLQKGSDTEAQCEVMQEIVDQVLEEDFDSEQLSVLASCLQELFKAHFRGEVLPEEITEESLEESVGKPLYLIFRNLCQMQEDNSSFSLLLDLLSELYQKQPKIGYHLLYYLRASKAAAGKMNLYESFAQATQLGDLHTCLMMDMKACQEDDVRLLCHLTPSIYTEFPDETLRSGELLNMIVAVIDSAQLQELVCHVMMGNLVMFRKDSVLNILIQSLDWETFEQYCAWQLFLAHNIPLETIIPILQHLKYKEHPEALSCLLLQLRREKPSEEMVKMVLSRPCHPDDQFTTSILRHWCMKHDELLAEHIKSLLIKNNSLPRKRQSLRSSSSKLAQLTLEQILEHLDNLRLNLTNTKQNFFSQTPILQALQHVQASCDEAHKMKFSDLFSLAEEYED
notes: also called INTS3CTD dimer

Experiments:
His-INTS3-Strep [1] = target: T1, His-INTS3-Strep (human, UniProt Q68E01 2-1043); test: co-IP in transfected HEK-293T cells (FIG. 6C)
T1 construct: also called INTS3 (co-IP construct)
Protocol: (§1) After 48 hours, cells were lysed in IP buffer containing 50 mM Tris-HCl pH 7.5, 150 mM NaCl, 0.1% Triton-X100, 1 mM EDTA and 1×Roche protease inhibitor. The supernatants were incubated overnight with mouse anti-His monoclonal antibody (Proteintech #66005-1-Ig), or rabbit anti-FLAG polyclonal antibody (Proteintech #20543-1-AP).
(§2) Then, protein A/G agarose beads (Millipore, #[…]02) were added and rotated for 2 more hours. The immunoprecipitated complexes were subjected to SDS-PAGE, followed by Western blot and/or MS analyses.

His-INTS3-Strep [2] = target: T1, His-INTS3-Strep; test: co-IP
Protocol: as §1, §2

[3] = target: B6; test: purification of the complex, size-exclusion chromatography (FIG. 8B)
[4] = target: B6; test: ITC (MicroCal iTC200, 16 °C, single-site model, two independent experiments)
Protocol: The equilibrium dissociation constant of the SAGE1I3BD-INTS3CTD interaction was determined using a MicroCal iTC200 calorimeter (Malvern). The binding enthalpy was measured at 16° C. in 25 mM Tris-HCl pH 8.0, 150 mM NaCl and 5 mM MgCl2. Two independent experiments were performed. ITC data were subsequently analyzed and fitted using Origin 7 software (OriginLab).
All statistical tests of experimental results were performed using the GraphPad Prism 7 unless noted. The statistical significance was calculated via unpaired two-tailed Student's t test. The dissociation constants (Kd) in ITC experiments were calculated using the Origin 7 software as mean±standard error from two independent experiments with a single site-specific binding model. The statistical analysis of in vivo experiments data was performed using nonparametric Mann-Whitney test. Results were represented as mean±standard deviation unless noted and p<0.05 was considered statistically significant.

[5] = target: the molecule itself; test: homodimerisation of two INTS3CTD protomers; crystal structure (2.3 Å) and calibrated size-exclusion chromatography

T1 sequence (Q68E01 2-1043): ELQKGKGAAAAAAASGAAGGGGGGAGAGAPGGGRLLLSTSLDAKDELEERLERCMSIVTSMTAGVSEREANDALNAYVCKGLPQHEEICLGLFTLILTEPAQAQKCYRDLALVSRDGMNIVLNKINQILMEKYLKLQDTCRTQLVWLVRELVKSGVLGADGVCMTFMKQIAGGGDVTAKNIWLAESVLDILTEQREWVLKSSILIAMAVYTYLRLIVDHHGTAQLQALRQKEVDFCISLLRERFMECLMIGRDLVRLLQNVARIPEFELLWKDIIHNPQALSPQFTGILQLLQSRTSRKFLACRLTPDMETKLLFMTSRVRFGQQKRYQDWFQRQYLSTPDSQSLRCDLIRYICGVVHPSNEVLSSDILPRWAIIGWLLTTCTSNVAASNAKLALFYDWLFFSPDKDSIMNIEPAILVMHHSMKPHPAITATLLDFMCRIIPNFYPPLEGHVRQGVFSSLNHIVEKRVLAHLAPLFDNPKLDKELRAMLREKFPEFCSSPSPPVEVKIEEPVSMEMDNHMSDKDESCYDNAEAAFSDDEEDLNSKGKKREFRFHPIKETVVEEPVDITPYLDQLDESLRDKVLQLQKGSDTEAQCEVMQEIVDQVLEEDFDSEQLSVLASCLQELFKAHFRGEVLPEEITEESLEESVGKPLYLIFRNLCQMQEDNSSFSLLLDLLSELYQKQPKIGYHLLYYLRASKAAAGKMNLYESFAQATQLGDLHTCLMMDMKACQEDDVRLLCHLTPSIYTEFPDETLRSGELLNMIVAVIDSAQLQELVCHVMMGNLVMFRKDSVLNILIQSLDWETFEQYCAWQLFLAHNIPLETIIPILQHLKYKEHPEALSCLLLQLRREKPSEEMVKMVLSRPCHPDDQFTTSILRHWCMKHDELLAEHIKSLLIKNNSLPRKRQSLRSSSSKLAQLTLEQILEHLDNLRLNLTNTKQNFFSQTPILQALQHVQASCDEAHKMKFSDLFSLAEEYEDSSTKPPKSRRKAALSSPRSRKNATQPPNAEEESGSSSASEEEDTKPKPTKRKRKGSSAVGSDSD

Binder: B1
- binding result (His-INTS3-Strep [1]): binds

Binder: B2
- binding result (His-INTS3-Strep [2]): no binding

Binder: B3
- binding result [3]: binds

Binder: B4
- binding result (His-INTS3-Strep [2]): no binding

Binder: B5
- Kd [4]: ~39 nM

Binder: B6
- binding result [5]: binds
